According to article PMC4488448:

Target: HER-2 (human (endogenous in SKBR3 and T47D)) (UniProt P04626)

Substance | IC50 of killing of HER-2-overexpressing SKBR3 cells (luminescent cell viability assay; Fig 4A)
eSrtA-conjugated cFRP5-DM1 (antibody) | 0.067 µg/mL
eSrtA-conjugated cFRP5-maytansine (antibody) | 0.0779 µg/mL
